Experiment: soluble on expression in E. coli; label from the status in PepcDB or PDB records

Sequence | soluble on expression in E. coli
MGSDKIHHHHHHMKTLKNLITSKHQTKASRFLGYLMPFDDFEKTLLQLKKEHFKAAHFVTAFRYSLEGKITEGFSDDGEPKGSSGMPMLSVLRREDLINIGLVSVRYFGGTLLGVGGLMKAYAKSALLCVENAQKEDALKDFVELETLSAHYSYKELDALQREIKKFSLQLSKKNFSNQSVEVEISGTRENLQAFLQQNKIN | not soluble
MGSDKIHHHHHHMKTLQTHRVLQALIGHFTPFLESGITELMINTEQELWLYKVNNTREKRGHALFDKAFLLRFCEQLASFRGLFFDEEHPTLNCSIPFTRYRVSANHFSITTNNQITLNIRVPRLKPLSLEDFTFKASDPKSLKDLALKGHNILISGETSSGKTSLLNALLDCVNKDERVVSVEDSQELDLKAFSNCVGLLVGKQENTRFNYEDALNMAMRLNPDRLIVGEIDTRNAALFLRLGNTGHKGMLSTIHANSAQNTLEALSLNLSMRYMYSLDKDLMRAYFKSAIDVIVHVNRINNERQIAEVLWTKEL | not soluble
MGSDKIHHHHHHMKVAIVIHDLKGGGAEKMMMRLANAISKQHHEVDLVLLTNGGTNKDLLDNGVNLIELNSLRTASSVPRLRQYLKINSPDRVLSALTHVNVITFIACLSLGWLSRLHCSERNAFSFDKDVNKSPLIKFAYFLAPFLYRISPNPVIAVSLGVALDLIETTVVCPKNVINLPNPTLNDNYKTHIFLAPSHPWLSDKTKPVIVGLGRLAQQKGFSDLINAFALVREKIDSRLIIFGEGELRIKLQTQIDNLGLTDSVSLFGYVRAPMDEVHSADVFVLSSLFEGSPNALVEAMASRCKVVSTRCPCGPDEILIQGALGILVPVKSPNKLAEAIICSLLDADYDFENQLDKIERFTANNSASAYLSAMGIHGV | not soluble
MGSDKIHHHHHHMKVKWSRDFSIKNMQLDKQHELIFEITNLANDLALNIQDNNTQHKNDLKQILVKLFQYIKIHFKDEEKFMESIDFPLIEEHKKSHQILVEKTKELLEHSNDIVKMSQELSILTKDWILDHFANEDLWIANFTKKTLHLQEIHYTLEQYIKLKSIKQDLRAEKTYDYICNCSLRIHAVPQTIHQELVSKENTLKCEKCGQILVHLDYFDLNQNFEKFNAIFEDALQNHHFTTQENDMRGGG | not soluble
MGSDKIHHHHHHMKVSSKPSLTWEILTSRADRPRQEVFPFNTGRCEYFYSARYALAAALDALKLSPQQSILMPSYNCWVEVEPAVRSGAKIDWYRVKTDFSIDEDDLLARIRPETAAIFVIHYLGFPQRLENIHRICTERGIVLIEDCAHALLSNDGDVPLGLTGDMAIFSIRKTVPIPDGGCLLINNPAFSVNRPRRVRPNLFATYFVVSEMLARGSTTEPKRVNQMAYSCNFAFARLARMGLRGIHKIFQDHGDYLVYPSGNHFNEQVKHWMMSDVSSAILRGTEFQRIKERRRANFLHLLDKLIMNDRITLPILSLPEGVSPLFFPVIVQDRDRVYRQLKDQGLSGHDWWGDFHPAVPWDKYPDAVYLKTNVFGFPVHQDLSRESLGIMLAEFSQCL | not soluble
MGSDKIHHHHHHMKYIINHSNDTAFNIALEEYAFKHLLDEDQIFLLWINKPSIIVGRHQNTIEEINRDYVRENGIEVVRRISGGGAVYHDLNNLNYTIISKEDENKAFDFKSFSTPVINTLAQLGVKAEFTGRNDLEIDGKKFCGNAQAYINGRIMHHGCLLFDVDLSVLANALKVSKDKFESKGVKSVRARVTNIINELPKKITVEKFRDLLLEYMKKEYPEMTEYVFSEEELAEINRIKDTKFGTWDWNYGKSPEFNVRRGIKFTSGKVEVFANVTESKIQDIKIYGDFFGIEDVAAVEDVLRGVKYEREDVLKALKTIDITRYFAGISREEIAEAVVG | soluble
MGSDKIHHHHHHMKYLPLYPILARYPFLRIASRVFSFNIEDELRKFLDTVEAAKRIVDKAIDGRVEYDRFTDESEFFCLGCEENCYDCQKRGTLEGCDLCMGCFENCSLYYPREAVERFYTNAKLSLLTYIASRMIVSAMEDWVRMRYAVNEASYYSRLLREDVEESGKEPIVRLVAIDLGAKLKGWKMHVSTFVRVSARIKDDKWRLVNRKLRNGWVETTKAEVLRGLEELLRMKLFEKVPVSEAVSEAVRELSRKAKRESEKFAMDLGEVDLNCLPPCMREILSELQRGMNIPHTARFAITSFLLNIGMTVDEIIALFKSAPDFDDEKTRYQVEHIAGERGKGAEYTSPSCDTMRTYSNCVADCRVSHPLIYYKKCKSKS | not soluble
MGSDKIHHHHHHMKYPNETSGTADYTVIKGLVTSNGDTGHDSIALDTATQLTAEDVKHFRDYGFSIVGRYLTGTVGTDYKPKNLTSTEIKTILDGGMKFFPIYEDGGYVESYFTASQGQKDAQTAIKTALDLELPAGTVIYFAVDVDFQDGDIDGTVIPYIKAIQNILSQSIYKTGIYGTRNVCLHAERVGIGFSFVANMSYGWSGNLGFKMPDNWAFDQFVEYPIYGIDIDQTASSGLDKGISGVAQTTPEVQTGYLANQLLSVFPDYHNLFGTINWTVSAPEQHLSTPIADYYITLEDKWIATVVDDKTGTLTIQDAKMLNQTADVMKQFESAMSSYDIGDLSGAFNKLAPMIGNGAIKAGLAIRDGMVGFKIAIEGSFESSTSSSSVEGKYTLTLETYIHRDQVPKNAYDPVYQPVTEPNPVFAVDLGKVATTVVIGLLVSSMLPEVGGGAALVELFNVVKTIFAVA | not soluble
MGSDKIHHHHHHMKYTVIICDDNLNHASNLALKIGIAAMVDSGDNPDTEIDLEIGKIAQNALDVIEYLKENPISGGIYFLDIELSQEKNAMNGIDLAEQVKQLDPRAQIIFVTAYNEYMEMTFERRIGAVDYINKSNPNLQNRLNETLQDTVRRISKENYSKKMTFSYRLGRIIKNINIDDIYYISTTKAPHKLKLVKNDGTAEFAGDIKSVDKQNEFLTKVSQSYLVNPKNIVQINLKKKEITLSNGDAIKFSRRFTHVMKDMINTYNLKQNNYQI | not soluble
MGSDKIHHHHHHMLAERLVSDYDVEVLTTCVRDVATGENIYPEGEEEWNGVVIRRFRTNPVQREKERYFAKKAKPARKLRQFLFKLGILKYLSYLIPVWSYKHDDEVQAMKSDKFYSSALNDYIRDHIDEYKAFIAMSSDYVTFYYTALYAGRKTIAIPTMHNMGISFRSVLTSAFSKIAYVGFNTGEEQRLAENILGKALGAHGILSVGIEESLSADWAMTKEKFQLPEKYLLYIGRITPKKIHRLLTYFVNYKKKYSDSTLRLVLVGGLAMERFEHPDVIYTGFVSDEEKMSILQHADIVVNPSRYESLSLILLEAMSQKRPMLVNGHCKVLKEHCLKSDFASFYYMNNRGFNQALRRIEQSEDLREEMGEKGVFYVKSNYNWTLIMGRLKQAIKSI | not soluble
MGSDKIHHHHHHMLCSRYFTSSLFLWGEALPTLLEEFLNEVEKMLKNQVNTRRIHQLLKELDDPLLENKDLEEKLQAFLDYVKEIPNLPEARKRYRIQKSLEMIEKLRSWFLIDYLECSGEEVDLSTDIQYAKGVGPNRKKKLKKLGIETLRDLLEFFPRDYEDRRKIFKLNDLLPGEKVTTQGKIVSVETKKFQNMNILTAVLSDGLVHVPLKWFNQDYLQTYLKQLTGKEVFVTGTVKSNAYTGQYEIHNAEVTPKEGEYVRRILPIYRLTSGISQKQMRKIFEENIPSLCCSLKETLPERILEKRKLLGVKDAYYGMHFPKTFYHLEKARERLAYEELFVLQLAFQKIRKEREKHGGIPKKIEGKLAEEFIKSLPFKLTNAQKRAHQEIRNDMISEKPMNRLLQGDVGSGKTVVAQLAILDNYEAGFQTAFMVPTSILAIQHYRRTVESFSKFNIHVALLIGATTPSEKEKIKSGLRNGQIDVVIGTHALIQEDVHFKNLGLVIIDEQHRFGVKQREALMNKGKMVDTLVMSATPIPRSMALAFYGDLDVTVIDEMPPGRKEVQTMLVPMDRVNEVYEFVRQEVMRGGQAFIVYPLIEESDKLNVKSAVEMYEYLSKEVFPEFKLGLMHGRLSQEEKDRVMLEFAEGRYDILVSTTVIEVGIDVPRANVMVIENPERFGLAQLHQLRGRVGRGGQEAYCFLVVGDVGEEAMERLRFFTLNTDGFKIAEYDLKTRGPGEFFGVKQHGLSGFKVADLYRDLKLLEWAREDVQEIDVEGIELPEEIKLIEVG | not soluble
MGSDKIHHHHHHMLDLKSYREKELASYDLDVELFNEFNFSVYNVMPLRKAFLISTDKGEKILKKIDYTIEEFKFVLAAVNYIKNENEFNRIIDFNKTQSGEYYCIKNGDLYCVMDMIEGKECEFSNPVDLSISSFGLGQLHSASEGFRYSKIASKNICGKMIKGFKRKKEEVNFLKKMVNLYESLNEFDEIFIKNVDYYLEQIDKSIDIMNKSQYYKLCSEEDKIVLCHHDLAHHNIIIKDEEAYFIDFDYAIIDLKVHDLSNIISKAAKVFNYSIDNSKIIISNYCKSNTLSKNEMEVLFGMLSFPEDFYEIVKSYYTKRKDWSNEEFINKMKRKMANEENRVEFLKNFKEDLKI | not soluble
MGSDKIHHHHHHMLDSSSGNAPDTHAAVDSAVLVSLDLNDSDSAENLEELRQLAASDRLAISAVVLGKRLRPDPATFAGSGKVDEIMGAVEQTGASLVIFNHDLSPAQQRNLEQRLRRRVIDRTSLILDIFAQRAKSHEGKLQVELAQLEHLATRLVRGWTHLERQKGGIGLRGPGETQLETDRRLLGKRVKVLKEKLAKFERQRALQRRARRRAQVMSVSLVGYTNAGKSTLFNRLTRGHTYVADQLFATLDATTRKLFIADRGPLVLSDTVGFIRDLPHTLVAAFRATLEETVQADLLLHVVDTSSSNRSEQIDEVNKVLKEIGADRIPQILVLNKTDLVDLPASSPGYQRDEYGRIVQVRLSAKTGEGLEFINLALSEALGERAALREPDNQSEAQDITSGYH | not soluble
MGSDKIHHHHHHMLEGIFDINHVFDEEGIKTLKRFGWDGSVAVQNHNEYSEEKINTAVEYGENCEFKVYSGVKISTKNQNEMEKAVKKYRNKVDILLVEGGDVKINRRVLEMNDVDILSTPELNRMDNGLDHILARLGSTNRVAVELNFGNLLKSKNYDRSKILWAFQRNLKLSKKYDTPVVISSGANDIYGIKAPGDLRGFLNTVADPLYSKKIIETTSKIIDYRLYLKNKNVLMPGLEIVEE | not soluble
MGSDKIHHHHHHMLEIIMSSIKSRQLTHSALASNIDIHDVTHFLLELDALKRVNRRSYVTGANRLENSAEHSWHLAMACWSIAELFELDVNQEKLLKMALVHDLGEIDAGDTFLYADTRGDAHLEERAGIARLQGERGNGISNLNEIWEEQETGSSTETQLLKVVDRLLPFLLNLNTNGKTWIELSVTRSQVSEAHAFIKDSFPSIHDWLAAQIEFATQQGWLIDT | not soluble
MGSDKIHHHHHHMLEQSIEAFKACVNDWLSAIAQLGEKPNRGNLHRFAYRAIRDKYPQLHSNVVQDAMNLAIEIYRSWLKNGGEFPKFRSDVIYFKGVDVRIENNGLVVPLMGRRVYLPLYVPKKYKKYLQYKHGRVIIKRVDKDWYALVSVNVPEKEPIKPVGTIGVDLGYYNLLVASDEKGRVVMRVQGDILIRHKEHMERLTARRQERLMKKFGIYARTNHKDRRFVNDLNHKIAKALVLKAKQLNRAIVLEKLKGLKKQRRPKLLRKILHLWSYADLIAKIVYKAKLYGVPVIFVSPRGTSKTCSNCGYYVRTFKDDRVFRCPKCGFVADRDYNASINIAKKGLEELRKRTFLPTLKDEASSPQGW | not soluble
MGSDKIHHHHHHMLFPDLANKIVREVRRLIKENIIIINIQGVIIASTDIERIGQFHEGALRCAKQKKTVIITKEDERRLQGVKAGMNLPLLFHDEVIGVIGITGEPENISQYGEILRKMTELLIHENYFLEQLELEHRSYEAFVFDWLQNTDWSPSFLDRAKTLGIDLYKKKQLILFSIDRNDTMLQRKVWQHVRNLLTKEHLFIRWGNDRFILFTATNSKEQTYQFLKRLKQDCETLFSVPLYIGIGQSVTPSNMNLSYEQALQALSVSLETKNIVFNEDLRLEMCLQDISAETREQFLKRTIENLLSSPELMHTLRLFIDYNQSYKQTAEQLHIHINTLHYRLKKIEEYTGLDPKQFKDLNILYFSLLLLDNHTKKNDKTD | not soluble

From the DeepSol protein solubility set
